Results published in patent US20040156851A1, “HMGB1 combination therapies” (Critical Therapeutics, Inc., priority 2002, published 2004).

How the values were obtained:
RAW 264.7 cells [1] = assay: TNF release from RAW 264.7 cells stimulated with HMGB1, mutants or B box peptides (L929 cytotoxicity bioassay); type: cell-based, murine
Method: Murine macrophage-like RAW 264.7 cells (American Type Culture Collection, Rockville, Md.) were cultured in RPMI 1640 medium (Life Technologies, Grand Island, N.Y.) supplemented with 10% fetal bovine serum (Gemini, Catabasas, Calif.), penicillin and streptomycin (Life Technologies) and were used at 90% confluence in serum-free Opti-MEM I medium (Life Technologies, Grand Island, N.Y.). […] Polymyxin B was not used in experiments of synthetic peptide studies.
TNF release was measured by a standard murine fibroblast L929 (ATCC, American Type Culture Collection, Rockville, Md.) cytotoxicity bioassay (Bianchi et al., Journal of Experimental Medicine 183:927-936, 1996) with the minimum detectable concentration of 30 pg/ml. Recombinant mouse TNF was obtained from R&D system Inc., (Minneapolis, Minn.). Murine fibroblast L929 cells (ATCC) were cultured in DMEM (Life Technologies, Grand Island, N.Y.) supplemented with 10% fetal bovine serum (Gemini, Catabasas, Calif.), penicillin (50 units/ml) and streptomycin (50 μg/ml) (Life Technologies) in a humidified incubator with 5% CO2.
The effect of the mutants on TNF release from Murine macrophage-like RAW 264.7 cells (ATCC) was carried out as follows. RAW 264.7 cells were cultured in RPMI 1640 medium (Life Technologies, Grand Island, N.Y.) supplemented with 10% fetal bovine serum (Gemini, Catabasas, Calif.), penicillin and streptomycin (Life Technologies). Polymyxin (Sigma, St. Louis, Mo.) was added at 100 units/ml to suppress the activity of any contaminating LPS. Cells were incubated with 1 μg/ml of full length (wild-type) HMGB1 and each HMGB1 mutant protein in Opti-MEM I medium for 8 hours. Conditioned supernatants (containing TNF which had been released from the cells) were collected and TNF released from the cells was measured by a standard murine fibroblast L929 (ATCC) cytotoxicity bioassay (Bianchi et al., supra) with the minimum detectable concentration of 30 pg/ml. Recombinant mouse TNF was obtained from R & D Systems Inc., (Minneapolis, Minn.) and used as control in these experiments. Data in FIG. 1 are all presented as mean±SEM unless otherwise indicated. (N=6−10).
(§1) To further examine the effect of HMGB1 B box on cytokine production, varying amounts of HMGB1 B box were evaluated for the effects on TNF, IL-1B, and IL-6 production in murine macrophage-like RAW 264.7 cells. Conditioned media were harvested and measured for TNF, IL-1β and IL-6 levels. TNF levels were measured as described herein, and IL-1β and IL-6 levels were measured using the mouse IL-1β and IL-6 enzyme-linked immunosorbent assay (ELISA) kits (R&D System Inc., Minneapolis, Minn.) and N>5 for all experiments.
The kinetics of B box-induced TNF release were also examined. TNF release and TNF mRNA expression were measured in RAW 264.7 cells induced by B box polypeptide or GST tag polypeptide only (used as a control (vector)) (10 μg/ml) for 0 to 48 hours. Supernatants were analyzed for TNF protein levels by an L929 cytotoxicity assay (N=3-5) as described herein. For mRNA measurement, cells were plated in 100 mm plates and treated in Opti-MEM I medium containing B box polypeptide or the vector alone for 0, 4, 8, or 24 hours, as indicated in FIG. 2D. The vector only sample was assayed at the 4 hour time point. Cells were scraped off the plate and total RNA was isolated using the RNAzol B method in accordance with the manufacturer's instructions (Tel-Test “B”, Inc., Friendswood, Tex.). TNF (287 bp) was measured by RNase protection assay (Ambion, Austin, Tex.). Equal loading and the integrity of RNA was verified by ethidium bromide staining of the RNA sample on an agarose-formaldehyde gel. […] TNF mRNA expression was maximal at 4 hours and decreased at 8 and 24 hours. […] A similar study was carried out measuring TNF protein released from RAW 264.7 cells 0, 4, 8, 24, 32 or 48 hours after administration of B box or vector only (GST tag), using the L929 cytotoxicity assay described herein. […]

RAW 264.7 cells [2] = assay: IL-6 release from RAW 264.7 cells (ELISA); type: cell-based, murine; conditions: B box 0-10 μg/ml, 8 hours (FIG. 2C)
Method: as §1

C3H/HeJ mice = assay: Lethality and histology in C3H/HeJ mice; type: in vivo; conditions: 8 hours after administration
RAW 264.7 cells [3] = assay: 125I-HMGB1 cell surface binding to RAW 264.7 cells; design: species or system murine; conditions: 4° C., specific binding (FIG. 5A)
Method: Purified HMGB1 protein (10 μg) was radiolabeled with 0.2 mCi of carrier-free ^125I (NEN Life Science Products Inc., Boston, Mass.) using Iodo-beads (Pierce, Rockford, Ill.) according to the manufacturer's instructions. ^125I-HMGB1 protein was separated from un-reacted ^125I by gel chromatography columns (P6 Micro Bio-Spin Chromatography Columns, Bio-Rad Laboratories, Hercules, Calif.) previously equilibrated with 300 mM sodium chloride, 17.5 mM sodium citrate, pH 7.0, and 0.1% bovine serum albumin (BSA). The specific activity of the eluted HMGB1 was about 2.8×10^6 cpm/μg protein. Cell surface binding studies were performed as previously described (Yang et al., Am. J. Physiol. 275:C675-C683, 1998). […] The radioactivity in the lysate was then measured using a gamma counter. Specific binding was determined as total binding minus the radioactivity obtained in the presence of an excess amount of unlabeled HMGB1 or A box proteins.
To determine whether the HMGB1 A box acts as an antagonist by displacing HMGB1 binding, ^125I-labeled —HMGB1 was added to macrophage cultures and binding was measured at 4° C. after 2 hours. Binding assays in RAW 264.7 cells were performed as described herein. ^125I-HMGB1 binding was measured in RAW 264.7 cells plated in 24-well dishes for the times indicated in FIG. 5A. […] The specificity of binding was assessed as described in Example 1. […]

B1: B box: Human HMGB1 mutant containing only the B box, SEQ ID NO:20 (protein, listed as Homo sapiens)
chain: FKDPNAPKRLPSAFFLFCSEYRPKIKGEHPGLSIGDVAKKLGEMWNNTAADDKQPYEKKAAKLKEKYEKDIAAY
TNF protein release over time (RAW 264.7 cells [1]; 10 μg/ml, 0-48 hours, compared to medium only (FIG. 2E)): stimulated TNF protein expression
TNF release, dose response (RAW 264.7 cells [1]; B box 0-10 μg/ml, 8 hours (FIG. 2A)): increased with increased amounts of B box
IL-6 release, dose response (RAW 264.7 cells [2]): IL-6 release from RAW 264.7 cells increased with increased amounts of B box
histology of liver (C3H/HeJ mice): mild acute inflammatory responses, with some hepatocyte dropout and apoptosis

B2: HMGB1: Recombinant full length human HMGB1, GST fusion system, SEQ ID NO:18; recombinant rat HMGB1 used in some experiments (protein, listed as Homo sapiens)
chain: MGKGDPKKPTGKMSSYAFFVQTCREEHKKKHPDASVNFSEFSKKCSERWKTMSAKEKGKFEDMAKADKARYEREMKTYIPPKGETKKKFKDPNAPKRLPSAFFLFCSEYRPKIKGEHPGLSIGDVAKKLGEMWNNTAADDKQPYEKKAAKLKEKYEKDIAAYRAKGKPDAAKKGVVKAEKSKKKKEEEEDEEDEEDEEEEEDEEDEEDEEEDDDDE
125I-HMGB1 binding over time (RAW 264.7 cells [3]): saturable first order binding kinetics
